From paper PMC8294851

What was measured:
[1] = molecular target: Neuronal SNARE complex (VAMP2 on nanolipoprotein particles with flipped t-SNAREs Syntaxin-1 and SNAP-25 on tCells) (not stated | rat) (UniProt P63045)
[2] = molecular target: Neuronal SNARE complex (VAMP2 on nanolipoprotein particles with flipped t-SNAREs Syntaxin-1 and SNAP-25 on tCells) (not stated | rat) (UniProt P63045); remark: listed apart in the source
[3] = molecular target: Neuronal SNARE complex (VAMP2 on nanolipoprotein particles with flipped t-SNAREs Syntaxin-1 and SNAP-25 on tCells) (not stated | rat) (UniProt P63045); remark: listed apart in the source

Chain of UniProt P63045 (P63045 whole entry, chain 1 of 3): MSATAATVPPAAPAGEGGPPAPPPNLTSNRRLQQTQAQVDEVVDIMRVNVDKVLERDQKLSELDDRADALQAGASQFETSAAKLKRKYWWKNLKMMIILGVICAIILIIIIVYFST
Chain of UniProt P63045 (P32851 186-288, chain 2 of 3, further chain): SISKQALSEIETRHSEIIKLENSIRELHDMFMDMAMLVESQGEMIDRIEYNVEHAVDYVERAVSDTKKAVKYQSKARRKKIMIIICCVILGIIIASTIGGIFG
Chain of UniProt P63045 (P60881 2-206, chain 3 of 3, further chain): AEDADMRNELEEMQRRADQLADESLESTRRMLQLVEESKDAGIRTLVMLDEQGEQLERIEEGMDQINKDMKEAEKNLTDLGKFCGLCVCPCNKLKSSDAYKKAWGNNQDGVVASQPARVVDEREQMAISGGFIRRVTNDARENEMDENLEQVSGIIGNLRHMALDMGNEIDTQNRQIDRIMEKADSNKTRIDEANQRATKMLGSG

Question: For “Full-length Synaptotagmin-1 (pET28a-SUMO-synaptotagmin 1, residues 57-421), reconstituted into nanolipoprotein particles (from UniProt P21707 57-421) (natural protein)”, which mean single-pore conductance, fusion of NLPs carrying Syt1 and VAMP2 with flipped t-SNARE cells pre-incubated with diC8PI(4,5)P2, compared to SNARE-alone fusion [1] is on record?
Answer: 3 fold

Question: “Synaptotagmin-1 C2AB R398Q, R399Q (from UniProt P21707 96-421) (domain or fragment)” was tested. Which mean single open-pore conductance, mutant C2AB with VAMP2 NLPs and flipped t-SNARE cells, 100 μM free calcium and exogenous PI(4,5)P2, compared to wild-type C2AB [2] did it give?
Answer: 3 fold smaller

Question: How did the mean single fusion pore conductance, 10 μM soluble C2AB with VAMP2 NLPs and flipped t-SNARE cells, 100 μM calcium and exogenous PI(4,5)P2, compared to no Syt1 [3] turn out when “Synaptotagmin-1 soluble C2AB domains (rat Syt1 residues 96-421) (from UniProt P21707 96-421) (domain or fragment)” was run?
Answer: 3 fold
